Measurements from the nanobody polyreactivity screen of Harvey et al. (2022).

Test: yeast display, Sf9 membrane polyspecificity reagent, FACS + sequencing; frameworks hold sequencing errors
In short: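 Nanobodies came from a synthetic yeast display library in Saccharomyces cerevisiae BJ5465, induced with galactose for 36–48 hours and stained for 1 hour at 4 °C with 10% biotinylated, detergent-solubilized Sf9 membrane reagent. Cells were enriched on streptavidin microbeads and then FACS-sorted, with low and high (top ~1%) gates set on anti-HA fluorescence for expression and streptavidin fluorescence for reagent binding. Each polyreactivity label reflects the gate a clone came from. Genes were amplified by colony PCR, sequenced by MiSeq 2 × 250 and filtered by CDR length.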

Sequence	polyreactivity (PSR sort gate)
QVQLVESGGGLVQPGGSLRLSCAASGSTFGGYAKGWYRQAPGQERELVAAITWDTGTTYYADSVKGRFTISRDNAKNTVYLQMNSLKPEDTAVYYCAAVGSTTTGVRRRGYWGQGTQVNVSS	high polyreactivity
QVQLVESGGGLVQPGGSLRLSCAASGSTFSWNAMGWYRQAPGKERELVASITWGGGSTYYADSVKGRFTISRDTAKNTVYLQMNSLKPEDTAVYYSAAKYGTSKYSRYYYWGQGTQVTVSS	high polyreactivity
QVQLVESGGGLVQSGCSLRLSCAASGSTFYRYAMGWYRQAPGKERELVAAITSAGSTNYADSVKGRFTISRDNAKNTVYLLMNSLKPEDTAVYYCAADHGRPYFSYDYWGQGTQVTVSS	low polyreactivity
QVQLVESGGGLVQSGGILRLSCAASGGTFYANAMGWYRQAPGKERELVAAITSGGSTNYADSVKRRFTISRDNAKNTVSLQMNSLKPEDTAVYYCNASAQRRYWHSYFRRYDYWGQGTQVTVSS	low polyreactivity
QVQLVESGGGLVQSGGSLLLSCAASGFTFGRYAMAWYRQAPGKERELVAAIRRSGGSTYYADSVKGRFTISRDNAKNTVYLQMNSRKPEDTAVFYCAAVRWWTYGNYDYWGQGTQVTVSS	high polyreactivity
QVQLVESGGGLVQSGGSLRLICAASGRTSLNYAMGWYRQAPGKEMELVAAITRGGGGTYYADSVKGRFTISRDNAKNTVYFQMNSLKPEDTAVYYCAREHKRGGYGYWGQGTQVTVSS	high polyreactivity
QVQLVESGGGLVQSGGSLRLSCAASGFIFPVYTLGWYRHAPGKERELDAAITQIGGSTHYADSVKGRFTISRDNAKNTVYLQMNSLKPEDTAVFYCKAVPSYGTEYDYWGQGTQVTVSS	low polyreactivity
QVQLVESGGGLVQSGGSLRLSCAASGLIFTSYAMGWYRQAPGKERELVAAISYSGGTTFYADYVKGRFTISRDNAKNTVYLQMNSLKPEDTAVYYCAADSLSTTHDTLGYDRDDYWGQGTQVTVSS	low polyreactivity
QVQLVESGGGLVQSGGSLRLSCAASGLIIGLYAMGWYRQAPGTERELVAAISDNGARTYYADSVKGRFTISRDYAKYTVYLQMNSLKPEDTAVDYCARDQSYHYNYWGQGTQVTVSS	low polyreactivity
QVQLVESGGGLVQSGGSLRLSCAASGLTFRRNPMGRYRQAPGKERELVATITSGGSTNYADSVKGRFTISRDNAKNTVYLQMNSLKTEDTAVYYCAARTTYITPWAGRYFSWDYDYWGQGTQVTVSS	high polyreactivity
QVQLVESGGGLVQSGGSLRLSCAASGLTLGHNAMGLYRQAPGKERELVAAITRGGSTNYSDSVKGRFTISRDNAKNTVYFHMNSLKPEYTAVYSCAADLYLGWYYGFEYDYWGQGTQVTVSS	low polyreactivity
QVQLVESGGGLVQSGGSLRLSCAASGNTFHSNAMGWYRQAPGKERELVAAITPSDGDTYYADSVKGRFTISRDNAKNTVYLQMNSLKPEDTAVYYCNARKQVYKIYYSDYRRYDYWGQGTQVTVSS	low polyreactivity
QVQLVESGGGLVQSGGSLRLSCAASGRIFVYYAMGWYIQAPGKEMELVAAIDGSDGTTYYADSVKGRFTISRDNAKNTVYLQMNSLKPEDTSVYYCAKDNSLPDYDYWGQGTQVTVSS	low polyreactivity
QVQLVESGGGLVQSGGSLRLSCAASGRTFRYYVMGWYRQAPGKERELVADISRGGGRTRYADSVKGRFTISRDNAKNTVYLQMNSLKRDDTAVYYCGARSYSGQFGYWGQGTQVTVSS	high polyreactivity
QVQLVESGGGLVQSGGSLRLSCAASGSIFGYYAMGWYRPAPGKERELVAGITNSGDTNYADSVKGRFTISRDNAKNTVYLQMNSLKPEDTAVYYCAAESWAALYGMDYWGQGTQVTVSS	low polyreactivity
QVQLVESGGGLVQSGGSLRLSCAASGSIFTGYAMGWYRQAPGKERELVAAITGRGTRTYYADSLKGRFTISRDNANNTVSLQMNSLKPEDTAVYYCAAPVGASSYRDYYWGQGTQVNVSS	high polyreactivity
QVQLVESGGGLVQSGGSLRLSCAASGSIFTWYTMGWYRQAPGKERELVAAISWSGGRTYYADSVKGRFTISRDNAKNTVYLQMNSLKPEDTAVYYCAASAYGRPPFDYWGQGTQVTVSS	high polyreactivity
QVQLVESGGGLVQSGGSLRLSCAASGSIYAYYAMGWYRQAPGKERELVAAIRFNSGRTYYADSVKGRFTISRDNAKNTVYLQMKSLKPEDTAVYYCAARDGYVYSHRYDYWGQGTQVTVSS	high polyreactivity
QVQLVESGGGLVQSGGSLRLSCAASGSTFSINPMGWYRQAPGKERELFAAITWRGVRTYYADSVKGRFTISRDNAKNTVYFQMNSLKPEDTAVYYCAADVVVAGHPGFDYWGQGTQVTVSS	high polyreactivity
QVQLVESGGGLVQSGGSLRLSCAASGSTSGTNAMGWYRQAPGKERELVAGISYRGGSTYYADSVKGRFTISRDNAKNTVYLHMNSLKPEDTEVYYCAASRNISYWGQGTQVTVSS	high polyreactivity
QVQLVESGGGLVQSGGSLRLSCAGSGSTFHYNAMGWYRQAPGKEREFVAAISRTGTSTYYADSVKGRFTISRDNAKNTVYLQMNSLKPEDTAVYYFAAKSLRSGMGYWGQGTQVTVSS	high polyreactivity
QVQLVESGGGLVQTGGSLRLSCAASGRIFKHYAMGWYTHAPGKERELVAAITNGGRTNYSDSVKGRFTISRDNAKNTVYLQMNSLKPEDTAVSYCARDRKIAYLSEGFDYWGQGTQVSVSS	low polyreactivity

Sequence	polyreactivity (PSR sort gate)
QVQLVESGGGLVQTGGSLRLSCAASGRIFRYYDMGWYRQAPGKEREFVAAITRSGAITYYADSVKGRFTISRDNAKNTVYLQMNSLKPEDTAVYYCFAVRHYALYAGRPYDYWGQGTQVTVSS	low polyreactivity
QVQLVESGGGLVQTGGTLRLSCAASGRSFNRNARAWYRLAPGKERELVAAISSRVGRTYYADSVKGRFTISRDNAKNSVYLKMNSLKQEETAVYYCNAVYSQSCYFYRFDYWGQGTQVNVSS	high polyreactivity
QVQLVESGGGLVQVGGSLRLSCAASGFIFTHYAMGWYRQAPGKERELVAAISVDGGDTYYADSVKGRFTISRDNAKNTVYLQMNSLKPEDTAVYYYWGQGTQVTVSS	low polyreactivity
QVQLVESGGGLVQVGGSLRLSCAASGSNFPANAMGWYRQAPGKEWEFVAAINWSTGTTYYADSVKGRFTISRDNAKNTVYLQMNSLKPEDTAVYYCNASDQAKYDYWGQGTQVTVSS	low polyreactivity
QVQLVESGGGLVRAGGSLRLSWAASGFTFTSYAMGWYRQAPGKERELVAAITVTGGRTYYADSVKGRFTISRDNAKNTVYLQMNSLKPEDTAVYYCATVFSLSSPYWKHYYWGQGTQVTVSS	high polyreactivity
QVQLVESGGGLYQAGGSLRLSCAASGLIFTTNAMGWYRQAPGKEREFVAAISPSGGSTYYADSVKGRFTISRDNAKNTVYLQMNSLKPEDTAVYYCAARYSPVWHKYYYWGQGTQVTVSS	high polyreactivity
QVQLVESGGGSDQAGGSLRLSCAASGSTFQYNVMGWYRQAPRKERELVAAIRQSGSTTYYADSVKGRFTISRDNAKNTVYLQMNSLKPEDTAVYYCAKRYHNWANSRMDYWGQGTQVTVSS	low polyreactivity
QVQLVESGGGSLRLSCAASGLTFGGYTMGWIRQAPGKERELVAAISSSDSTNYADSVKGRFTISRDNAKNTVYVQMNSLKPEDTALYSCSADSGQWSRYSSFGDEGDSWGQGTQVTVSS	low polyreactivity
QVQLVESGGGSVQAGGSLRLSCAASGFTFDKNTMGWYRQAPGKERELVAAISSSGSSTYYADSVKGRFTISRDNAKNTVYLQMNSLKPEDTAVYYCAADYWGWDDYSEYYYWGQGTQVTVSS	high polyreactivity
QVQLVESGGGSVQAGGSLRLSCAASGSIFRANAMGWYRQAPGKERELVAAITANGGSTYYADSVKGRFTISRDNAKNTVYLQMNSLKPEDTAVYYCNNARVRGARFDYWGQGTQVTVSS	high polyreactivity
QVQLVESGGGSVQAGGSLRLSCAASGSTFGGNVMGWYRQAPGKERELVAAISGSGGSTYYADSVKGRFTISRDTAKNTVYFQMNSLKPVDTSVYYCNVESSQSSSGFDYWGQGTQVTVSS	low polyreactivity
QVQLVESGGGSVQAGGSLRLSCAASGSTFVANTMGWYRQAPGKERELVASITSGDSTNYADSVKGRFTISRDNAKNTVYLQMNSLKPEDTAVYYCAAESVWYYVGGQLIYYYWGQGTQVTVSS	low polyreactivity
QVQLVESGGGVFQAGGTLSLSCAASGITFYPNDMGWYRQATGKETELVAAITTNDGDTYYADSVKGRFTISRDNAKNTVYLQMNSLKPEYTAVYYCAADSGSTSEYEYWGQGTQVTVSS	low polyreactivity
QVQLVESGGGVLQAGGSLRLSCAASGRTFCFYAMGWSRQAPGKERELVASITWRGGRTYYADSVKGRFTISRDNAKNTVYLQMNSLKPEDTAVYYCAAVTFSYDGYDYWGQGTQVTVSS	low polyreactivity
QVQLVESGGGVVQAGGILRFSCAASGRTFAPDAMGWYRQAPGKERELDAAITNGGSTTYADSVKGRFTISRDNAKNTVYLHMNSLNPEDTAVYYCAADIVSSTDYPFDYWGQGTQVNVSS	low polyreactivity
QVQLVESGGGVVQAGGRLRLSCAASGGIYRYYAMGWYRQAPGKERELVAVITKSGGDTYYADSVKGRFTISRDNAKNTVYLQMNSLKPEDTAVYYCAAVYGYYTYWIAGFTWAGDYWGQGTQVTVSS	low polyreactivity
QVQLVESGGGVVQAGGSIRLSCAASGRIFTSNAMGWNRQAPGKETELDAAISGSGGRTYYADSVKGRFTISRDNAKNTVYLQMNSLKPEDTAVYDCNARYYTSGIAYSYYYWGQGTQGTVSS	high polyreactivity
QVQLVESGGGVVQAGGSIRLSGAASGRIFGEYAMGWYRPAPAKERELGAAISGGGSTYYADSVKGRFTISRDNAKNTVYLQMNSLKPEDTAVYYCAVYSVYHEYDYGGQGTQVTVSS	low polyreactivity
QVQLVESGGGVVQAGGSLRISCAASGSTFVRYAMGWYRQAPGKERELVASISSSGSTYYADSVKGRFTISRDYAKNTVNVELNCLNPEDNAVYYCAKQYGGRYGYWGQGSQVTVSS	low polyreactivity
QVQLVESGGGVVQAGGSLRLSCAASGFIFTFYAMGWYRQAPGKERELVAAITGRGGRTYYADSVKGRFTISRDNAKNTVYLQMNSLKPEDTAVYYCAARYRYSVTPGYVYWGQGTQVTLSS	high polyreactivity
QVQLVESGGGVVQAGGSLRLSCAASGFLFSHNAMGWYRQAPGKERELVASITSAGTTYYADSVKGRFTISRDNAKNTVYLQMNSLKPEDTAVYYCNKGGSSPVDIYITGDGDYWGQGTQVTVSS	low polyreactivity
